In publication PMC10643893 (2022):

Columns and labels:
Test in all cases: SPR
pneumolysin [1] = molecular target: T1, pneumolysin (Streptococcus pneumoniae, UniProt P0C2J9 1-471)
T1 chain: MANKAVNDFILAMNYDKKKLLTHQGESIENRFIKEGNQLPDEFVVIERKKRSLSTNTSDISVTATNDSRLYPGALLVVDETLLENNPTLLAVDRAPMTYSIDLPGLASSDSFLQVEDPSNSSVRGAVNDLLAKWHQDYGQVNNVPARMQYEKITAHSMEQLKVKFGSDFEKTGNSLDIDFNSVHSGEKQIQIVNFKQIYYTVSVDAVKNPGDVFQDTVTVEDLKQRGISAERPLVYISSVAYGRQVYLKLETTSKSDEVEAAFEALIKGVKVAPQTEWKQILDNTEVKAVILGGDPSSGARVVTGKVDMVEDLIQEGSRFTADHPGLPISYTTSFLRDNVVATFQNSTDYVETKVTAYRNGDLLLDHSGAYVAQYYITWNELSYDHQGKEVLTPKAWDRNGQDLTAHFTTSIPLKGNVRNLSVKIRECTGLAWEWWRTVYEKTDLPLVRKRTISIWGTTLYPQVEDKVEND

pneumolysin [2] = molecular target: T1, pneumolysin
pneumolysin [3] = molecular target: T1, pneumolysin

B1: plasma kallikrein (zymogen) (natural protein)
chain: not shown
koff (pneumolysin [1]): 0.00942 s⁻¹ | Ka (pneumolysin [2]): 3.04e+06 M⁻¹ | Kd (pneumolysin [3]): 328 nM

B2: high-molecular-weight kininogen (natural protein)
chain: QESQSEEIDCNDKDLFKAVDAALKKYNSQNQSNNQFVLYRITEATKTVGSDTFYSFKYEIKEGDCPVQSGKTWQDCEYKDAAKAATGECTATVGKRSSTKFSVATQTCQITPAEGPVVTAQYDCLGCVHPISTQSPDLEPILRHGIQYFNNNTQHSSLFMLNEVKRAQRQVVAGLNFRITYSIVQTNCSKENFLFLTPDCKSLWNGDTGECTDNAYIDIQLRIASFSQNCDIYPGKDFVQPPTKICVGCPRDIPTNSPELEETLTHTITKLNAENNATFYFKIDNVKKARVQVVAGKKYFIDFVARETTCSKESNEELTESCETKKLGQSLDCNAEVYVVPWEKKIYPTVNCQPLGMISLMKRPPGFSPFRSSRIGEIKEETTVSPPHTSMAPAQDEERDSGKEQGHTRRHDWGHEKQRKHNLGHGHKHERDQGHGHQRGHGLGHGHEQQHGLGHGHKFKLDDDLEHQGGHVLDHGHKHKHGHGHGKHKNKGKKNGKHNGWKTEHLASSSEDSTTPSAQTQEKTEGPTPIPSLAKPGVTVTFSDFQDSDLIATMMPPISPAPIQSDDDWIPDIQIDPNGLSFNPISDFPDTTSPKCPGRPWKSVSEINPTTQMKESYYFDLTDGLS
koff (pneumolysin [1]): 0.00208 s⁻¹ | Ka (pneumolysin [2]): 573000 M⁻¹ | Kd (pneumolysin [3]): 12600 nM

B3: factor XII (zymogen) (natural protein)
chain: IPPWEAPKEHKYKAEEHTVVLTVTGEPCHFPFQYHRQLYHKCTHKGRPGPQPWCATTPNFDQDQRWGYCLEPKKVKDHCSKHSPCQKGGTCVNMPSGPHCLCPQHLTGNHCQKEKCFEPQLLRFFHKNEIWYRTEQAAVARCQCKGPDAHCQRLASQACRTNPCLHGGRCLEVEGHRLCHCPVGYTGAFCDVDTKASCYDGRGLSYRGLARTTLSGAPCQPWASEATYRNVTAEQARNWGLGGHAFCRNPDNDIRPWCFVLNRDRLSWEYCDLAQCQTPTQAAPPTPVSPRLHVPLMPAQPAPPKPQPTTRTPPQSQTPGALPAKREQPPSLTRNGPLSCGQRLRKSLSSMTRVVGGLVALRGAHPYIAALYWGHSFCAGSLIAPCWVLTAAHCLQDRPAPEDLTVVLGQERRNHSCEPCQTLAVRSYRLHEAFSPVSYQHDLALLRLQEDADGSCALLSPYVQPVCLPSGAARPSETTLCQVAGWGHQFEGAEEYASFLQEAQVPFLSLERCSAPDVHGSSILPGMLCAGFLEGGTDACQGDSGGPLVCEDQAAERRLTLQGIISWGSGCGDRNKPGVYTDVAYYLAWIREHTVS
koff (pneumolysin [1]): 0.00198 s⁻¹ | Ka (pneumolysin [2]): 4.41e+07 M⁻¹ | Kd (pneumolysin [3]): 24.9 nM
